From PMC11044963, “Probing the CRL4^DCAF12 interactions with MAGEA3 and CCT5 di-Glu C-terminal degrons” (PNAS Nexus, 2024)

Columns and labels:
DCAF12 = assay: NanoBRET with full-length proteins, DCAF12; format: cell-based, human; conditions: HEK293T cells; FL protein
Excerpt: To further investigate the DCAF12 interaction with MAGEA3 and CCT5 in cells, we developed a NanoBRET assay, which measures the interaction of […] FL MEAGEA3/CCT5 or C-terminal peptide containing degron sequences ([…]/[…], respectively). When donor and acceptor proteins are in close proximity, the donor excites the acceptor, which then emits fluorescence, allowing for direct measurement of protein–protein interaction in cells.
HEK293T cells were plated in 96-well plates (2 × 10^4/well) and 4 h later transfected with 0.03 µg/well N-terminally HT-tagged DCAF12 (WT or mutants) or HT alone and 0.001 µg/well N-terminally NL-tagged CCT5 and MAGEA3 (FL or -EE degrons) using X-tremeGene HP transfection reagent (Roche), following the manufacturer's instructions. […] Four hours later, 10 µL of NanoBRET Nano-Glo Substrate solution (8 µL/mL Nano-Glo substrate (Promega) diluted in DMEM/F12 no phenol red, supplemented with 4% FBS, penicillin 100 U/mL, and streptomycin 100 µg/mL) was added, and the signal was read. Donor emission at 450 nm (filter: 450 nm/BP 80 nm) and acceptor emission at 618 nm (filter: 610 nm/LP) were measured within 10 min of substrate addition using CLARIOstar microplate reader (Mandel). […]

[1] = test system: DCAF12 mutants K91A, K108A, R203A, R256A, R344A; assay: NanoBRET with full-length proteins, DCAF12 mutants; format: cell-based, human; conditions: HEK293T cells; FL protein; all DCAF12 mutations vs WT
Excerpt: Fig. 2. Conserved arginine and lysine residues near DCAF12 central channel participate in MAGEA3 binding in cells. A) DCAF12 electrostatic surface potential analysis showing negatively and positively charged residues colored in red and blue, respectively. On the left, DDB1 contacting surface of DCAF12. On the right, substrate contacting surface with positively charged residues—Arg203, Arg256, and Arg344—highlighted as sticks. Electrostatic potential is shown on a scale of −10 (red) kT/e to 10 (blue). B) Conservation analysis of DCAF12 showing high conservation of the same positively charged residues (represented as sticks) among homologous sequences. Residues were colored on a scale from variable/low conservation (dark teal) to high conservation (magenta). […]
HEK293T cells were plated in 96-well plates (2 × 10^4/well) and 4 h later transfected with 0.03 µg/well N-terminally HT-tagged DCAF12 (WT or mutants) or HT alone and 0.001 µg/well N-terminally NL-tagged CCT5 and MAGEA3 (FL or -EE degrons) using X-tremeGene HP transfection reagent (Roche), following the manufacturer's instructions. […] Four hours later, 10 µL of NanoBRET Nano-Glo Substrate solution (8 µL/mL Nano-Glo substrate (Promega) diluted in DMEM/F12 no phenol red, supplemented with 4% FBS, penicillin 100 U/mL, and streptomycin 100 µg/mL) was added, and the signal was read. […]

B1: MAGEA3-FL: full-length melanoma-associated antigen 3 protein (protein)
chain: MPLEQRSQHCKPEEGLEARGEALGLVGAQAPATEEQEAASSSSTLVEVTLGEVPAAESPDPPQSPQGASSLPTTMNYPLWSQSYEDSSNQEEEGPSTFPDLESEFQAALSRKVAELVHFLLLKYRAREPVTKAEMLGSVVGNWQYFFPVIFSKASSSLQLVFGIELMEVDPIGHLYIFATCLGLSYDGLLGDNQIMPKAGLLIIVLAIIAREGDCAPEEKIWEELSVLEVFEGREDSILGDPKKLLTQHFVQENYLEYRQVPGSDPACYEFLWGPRALVETSYVKVLHHMVKISGGPHISYPPLHEWVLREGEE
modifications: left off: NanoLuc, N-terminal, kept
notes: full-length melanoma-associated antigen 3 protein
DCAF12
  BRET signal over negative control: 22 fold
[1]
  decrease of DCAF12 interaction by mutations, NanoBRET: over 50%
